Experimental data from patent US8574601B2, “Sustained-release polymer micelle disruptable by HDL” (Nanocarrier Co., Ltd., priority 2010, dated 2013).

Experiment: Rat intravenous administration test of polymer micelle encapsulating G-CSF (Example 1), plasma G-CSF concentration
Format: in vivo
Settings: 100 μg/kg i.v. tail vein, male Wistar rats; FIG. 3
Procedure: PEG-pGlu (10-40, 30% Chol) was used as a block copolymer. The block copolymer was weighed in a vial. A 20 mM 2-morpholinoethanesulfonic acid monohydrate (MES) buffer (pH 5) was added thereto so as to achieve a polymer concentration of 2 mg/mL and the mixture was vigorously stirred at 4° C. overnight. The polymer solution was subjected to ultrasonic irradiation (in an ice water bath, Low, interval of 1 second, 10 minutes) using a biodisruptor (High Power Unit manufactured by NIHONSEIKI KAISHA LTD.) and then treated with a 0.22-μm membrane filter. Thus, an empty micelle solution having a polymer concentration of 2 mg/mL was obtained. […]
The solution of the polymer micelles encapsulating G-CSF obtained above was administered to male Wistar rats via the tail vein. […] The plasma G-CSF concentration was measured using a G-CSF-ELISA kit (manufactured by RayBiotech, Inc.). […]
FIG. 3 illustrates the results of Example 1 (average±SD). FIG. 3 also illustrates theoretical values for the time-course of plasma concentration of a mixed polymer micelle (1:1), which theoretical values were calculated from the results of the time-courses of the plasma concentration of the test examples using PEG-pGlu (10-40, 30% Chol) and PEG-pGlu (10-40, 60% C8).

B1: G-CSF: G-CSF solution (100 μg/mL) administered directly (protein, UniProt P09919 31-207, looked up)
Granulocyte …: TPLGPASSLPQSFLLKCLEQVRKIQGDGAALQEKLVSECATYKLCHPEELVLLGHSLGIPWAPLSSCPSQALQLAGCLSQLHSGLFLYQGLLQALEGISPELGPTLDTLQLDVADFATTIWQQMEELGMAPALQPTQGAMPAFASAFQRRAGGVLVASHLQSFLEVSYRVLRHLAQP
retention time in plasma: extremely short
